Test results taken from patent US20230201364A1 (BRIGHT PEAK THERAPEUTICS, published 2023).

Tests used:
[1] = target: recombinant biotinylated PD1/CD279 protein (AcroBiosystems PD1-H82E4) (UniProt Q15116 25-167, biotinylated); assay: ELISA; antibody coated on plate, biotinylated antigen titrated, streptavidin-HRP
Procedure: The interaction of the unmodified and of conjugated antibodies their antigens were measured by ELISA assay.
For these PD-1 ELISAs, Corning high-binding half-area plates (Fisher Scientific, Reinach, Switzerland) were coated overnight at 4° C. with 25 μl of unmodified and of conjugated anti-PD1 antibodies at 5 μg/ml in PBS. Plates were then washed four times with 100 μl of PBS-0.02% Tween20. Plates surfaces were blocked with 25 μl of PBS-0.02% Tween20-1% BSA at 37° C. during 1 h. Plates were then washed four times with 100 μl of PBS-0.02% Tween20. […] Fifty microliters of TMB substrate reagent (#CL07, Merck, Buchs, Switzerland) were added to each well and incubated at 37° C. during 5 min. After 5 min at 37° C., Horseradish peroxidase reaction was stopped by adding 50 μl/well of 0.5M H₂SO₄ stop solution. ELISA signal was then measured at 450 nm on an EnSpire plate reader from Perkin Elmer (Schwerzenbach, Switzerland). ELISAs for other antibody/antigen pairs were performed using analogous methods.

[2] = target: T1, recombinant biotinylated human Fc gamma receptor IIa (FcγRIIa/CD32a 167H) (human, UniProt P12318 36-218, limits assumed, biotinylated); assay: AlphaLISA competition: test antibody titrated against biotinylated human FcγRIIa; competitor: human IgG Fc on acceptor beads; signal normalized to %; panel 'FcγR2a/CD32a Binding Assay'
T1 construct: also called FcgRIIa
T1 sequence (looked up): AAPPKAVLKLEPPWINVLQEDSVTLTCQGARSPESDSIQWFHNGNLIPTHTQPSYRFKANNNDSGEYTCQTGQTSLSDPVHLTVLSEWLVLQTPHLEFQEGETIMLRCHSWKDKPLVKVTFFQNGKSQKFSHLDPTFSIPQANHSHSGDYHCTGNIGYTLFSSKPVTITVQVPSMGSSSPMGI
Procedure: (§1) The interaction of the unmodified and of conjugated antibodies with human Fc gamma receptors I (FcγRI/CD64), with human Fc gamma receptors II (FcγRIIa/CD32), and with low affinity human Fc gamma receptors III FcγR3a/CD16 V158 were measured using the AlphaLISA® Human FcγR1/CD64 (AL3081C), FcγRIIa/CD32a 167H (AL3086C), and FcγRIII/CD16 176P/F158 (AL3471HV) binding Kits respectively (Perkin Elmer, Schwerzenbach, Switzerland).
(§2) After 90 min at 23° C. in the dark, AlphaLISA® signal was measured on an EnSpire plate reader (Excitation at 680 nm, Emission at 615 nm) from Perkin Elmer (Schwerzenbach, Switzerland).

[3] = target: T2, recombinant biotinylated human Fc gamma receptor IIIa (FcγRIIIa/CD16) (human, UniProt P08637 17-208, limits assumed, biotinylated); assay: AlphaLISA competition: test antibody titrated against biotinylated human FcγRIIIa; competitor: human IgG Fc on acceptor beads; signal normalized to %; panel 'FcγR3a/CD16 Binding Assay'
T2 construct: Allotype given inconsistently (V158 against 176P/F158); also called FcgRIIIa; FcγR3a
Procedure: as §1, §2

[4] = target: T3, recombinant biotinylated human Fc gamma receptor I (FcγRI/CD64) (human, UniProt P12314 16-288, limits assumed, biotinylated); assay: AlphaLISA competition: test antibody titrated against biotinylated human FcγRI; competitor: human IgG Fc on acceptor beads; signal normalized to %; panel 'FcγR1/CD64 Binding Assay'
T3 construct: also called FcgRI
Procedure: as §1, §2

[5] = target: T2, recombinant biotinylated human Fc gamma …; assay: AlphaLISA competition; test molecule titrated against human IgG Fc acceptor beads for biotinylated FcγRIIIa
Procedure: as §1, §2

[6] = target: T4, recombinant biotinylated human neonatal Fc receptor (FcRn) (human, UniProt P55899 24-297; P61769 21-119, limits assumed, biotinylated); assay: AlphaLISA competition at pH 6: test antibody titrated against biotinylated human FcRn on donor beads; competitor: human IgG on acceptor beads
T4 construct: also called human FcRn
Procedure: (§3) The interaction of the unmodified and of conjugated anti-PD1 antibodies with the human neonatal Fc receptor (FcRn) at pH 6 was measured using the AlphaLISA Human FcRn Binding Kit (AL3095C) from Perkin Elmer (Schwerzenbach, Switzerland).
(§4) After 90 min at 23° C. in the dark, AlphaLISA signal was measured on an EnSpire plate reader (Excitation at 680 nm, Emission at 615 nm) from Perkin Elmer (Schwerzenbach, Switzerland).

[7] = target: T3, recombinant biotinylated human Fc gamma …; assay: AlphaLISA competition: test antibody titrated against biotinylated human FcγRI on donor beads; competitor: human IgG Fc on acceptor beads; signal normalized to %
Procedure: as §1, §2

[8] = target: T4, recombinant biotinylated human neonatal …; assay: AlphaLISA competition at pH 6; test molecule titrated against human IgG acceptor beads for biotinylated human FcRn
Procedure: as §3, §4

[9] = target: T3, recombinant biotinylated human Fc gamma …; assay: AlphaLISA competition; test molecule titrated against human IgG Fc acceptor beads for biotinylated FcγRI
Procedure: as §1, §2

B1: CMP-105 (LZM-009) (antibody, V domains shown)
VH: QVQLVQSGAEVKKPGASVKVSCKASGYTFTSYYMYWVRQAPGQGLEWMGGVNPSNGGTNFNEKFKSRVTITADKSTSTAYMELSSLRSEDTAVYYCARRDYRYDMGFDYWGQGTTVTVSS
VL: EIVLTQSPATLSLSPGERATISCRASKGVSTSGYSYLHWYQQKPGQAPRLLIYLASYLESGVPARFSGSGSGTDFTLTISSLEPEDFATYYCQHSRELPLTFGTGTKVEIK
notes: Unconjugated parent anti-PD-1 antibody (DAR 0); also called Livzon PD1 AB
Work on B1 yielded a Kd [1] of 0.035 nM.

B2: CMP-102 (LZM-009 conjugated to CMP-003, DAR 1, K288) (antibody)
VH: QVQLVQSGAEVKKPGASVKVSCKASGYTFTSYYMYWVRQAPGQGLEWMGGVNPSNGGTNFNEKFKSRVTITADKSTSTAYMELSSLRSEDTAVYYCARRDYRYDMGFDYWGQGTTVTVSS
VL: EIVLTQSPATLSLSPGERATISCRASKGVSTSGYSYLHWYQQKPGQAPRLLIYLASYLESGVPARFSGSGSGTDFTLTISSLEPEDFATYYCQHSRELPLTFGTGTKVEIK
chain: APTSSSTKKTQLQLEHLLLDLQXILNGINNYKNPKLTRXLXYKFYXPKKATELKHLQCLEEELKPLEEVLXLAQSKNFHLRPRDLISNINVIVLELKGSETTFXCEYADETATIVEFLNRWITFSQSIISTLT
modifications: not fully specified; Nle at 23, 39, 46 and Hse at 41, 71, 104 (as in SEQ ID NO: 3); ~0.5 kDa PEG on Y45; 0.5 kDa PEG on F42Y whose azide end is joined to the DBCO linker of the antibody; the heavy chain carries a chemical linker to CMP-003 on Lys K288 (Eu numbering) of the Fc; DAR 1
B2 showed a Kd [1] of 0.027 nM.

B3: CMP-041 (LZM-009 conjugated to CMP-095 (IL-7), DAR 1, K248) (antibody)
VH: QVQLVQSGAEVKKPGASVKVSCKASGYTFTSYYMYWVRQAPGQGLEWMGGVNPSNGGTNFNEKFKSRVTITADKSTSTAYMELSSLRSEDTAVYYCARRDYRYDMGFDYWGQGTTVTVSS
VL: EIVLTQSPATLSLSPGERATISCRASKGVSTSGYSYLHWYQQKPGQAPRLLIYLASYLESGVPARFSGSGSGTDFTLTISSLEPEDFATYYCQHSRELPLTFGTGTKVEIK
chain: DCDIEGKDGKQYESVLXVSIDQLLDSXKEIGSNCLXNEFNFFKRHICDANKEGXFLFRAARKLRQFLKXNSTGDFXLHLLKVSEGTTILLNCTGQVKGRKPAALGEAQPTKSLXENKSLKEQKKLNDLCFLKRLLQEIKTCWNKILXGTKEH
modifications: not fully specified; Nle at 17, 27, 54, 69, 147 and Hse at 36, 76, 114 (as in SEQ ID NO: 187); N-terminal amine carries glutaryl-PEG9 whose azide end is joined to the DBCO linker of the antibody; the heavy chain carries a chemical linker to CMP-095 on Lys K248 (Eu numbering) of the Fc; DAR 1
notes: also called Livzon PD1:IL7wt
With B3 the Kd [1] was 0.035 nM.

B4: CMP-028 (LZM-009 conjugated to CMP-003, DAR 1.9, K288) (antibody)
VH: QVQLVQSGAEVKKPGASVKVSCKASGYTFTSYYMYWVRQAPGQGLEWMGGVNPSNGGTNFNEKFKSRVTITADKSTSTAYMELSSLRSEDTAVYYCARRDYRYDMGFDYWGQGTTVTVSS
VL: EIVLTQSPATLSLSPGERATISCRASKGVSTSGYSYLHWYQQKPGQAPRLLIYLASYLESGVPARFSGSGSGTDFTLTISSLEPEDFATYYCQHSRELPLTFGTGTKVEIK
chain: APTSSSTKKTQLQLEHLLLDLQXILNGINNYKNPKLTRXLXYKFYXPKKATELKHLQCLEEELKPLEEVLXLAQSKNFHLRPRDLISNINVIVLELKGSETTFXCEYADETATIVEFLNRWITFSQSIISTLT
modifications: not fully specified; Nle at 23, 39, 46 and Hse at 41, 71, 104 (as in SEQ ID NO: 3); ~0.5 kDa PEG on Y45; 0.5 kDa PEG on F42Y whose azide end is joined to the DBCO linker of the antibody; the heavy chain carries a chemical linker to CMP-003 on Lys K288 (Eu numbering) of the Fc; DAR 1.9
B4 was tested, and the Kd [1] was 0.041 nM.

B5: CMP-016 (LZM-009 conjugated to CMP-003, DAR 1, K248) (antibody)
VH: QVQLVQSGAEVKKPGASVKVSCKASGYTFTSYYMYWVRQAPGQGLEWMGGVNPSNGGTNFNEKFKSRVTITADKSTSTAYMELSSLRSEDTAVYYCARRDYRYDMGFDYWGQGTTVTVSS
VL: EIVLTQSPATLSLSPGERATISCRASKGVSTSGYSYLHWYQQKPGQAPRLLIYLASYLESGVPARFSGSGSGTDFTLTISSLEPEDFATYYCQHSRELPLTFGTGTKVEIK
chain: APTSSSTKKTQLQLEHLLLDLQXILNGINNYKNPKLTRXLXYKFYXPKKATELKHLQCLEEELKPLEEVLXLAQSKNFHLRPRDLISNINVIVLELKGSETTFXCEYADETATIVEFLNRWITFSQSIISTLT
modifications: not fully specified; Nle at 23, 39, 46 and Hse at 41, 71, 104 (as in SEQ ID NO: 3); ~0.5 kDa PEG on Y45; 0.5 kDa PEG on F42Y whose azide end is joined to the DBCO linker of the antibody; the heavy chain carries a chemical linker to CMP-003 on Lys K248 (Eu numbering) of the Fc; DAR 1
Binder B5 has a Kd [1] of 0.037 nM.

B6: CMP-033 (Durvalumab) (antibody, human IgG1, kappa)
heavy chain: EVQLVESGGGLVQPGGSLRLSCAASGFTFSRYWMSWVRQAPGKGLEWVANIKQDGSEKYYVDSVKGRFTISRDNAKNSLYLQMNSLRAEDTAVYYCAREGGWFGELAFDYWGQGTLVTVSSASTKGPSVFPLAPSSKSTSGGTAALGCLVKDYFPEPVTVSWNSGALTSGVHTFPAVLQSSGLYSLSSVVTVPSSSLGTQTYICNVNHKPSNTKVDKRVEPKSCDKTHTCPPCPAPEFEGGPSVFLFPPKPKDTLMISRTPEVTCVVVDVSHEDPEVKFNWYVDGVEVHNAKTKPREEQYNSTYRVVSVLTVLHQDWLNGKEYKCKVSNKALPASIEKTISKAKGQPREPQVYTLPPSREEMTKNQVSLTCLVKGFYPSDIAVEWESNGQPENNYKTTPPVLDSDGSFFLYSKLTVDKSRWQQGNVFSCSVMHEALHNHYTQKSLSLSPGK
light chain: EIVLTQSPGTLSLSPGERATLSCRASQRVSSSYLAWYQQKPGQAPRLLIYDASSRATGIPDRFSGSGSGTDFTLTISRLEPEDFAVYYCQQYGSLPWTFGQGTKVEIKRTVAAPSVFIFPPSDEQLKSGTASVVCLLNNFYPREAKVQWKVDNALQSGNSQESVTEQDSKDSTYSLSSTLTLSKADYEKHKVYACEVTHQGLSSPVTKSFNRGEC
notes: unconjugated parent anti-PD-L1 antibody; also called Imfinzi; MEDI-4736
In the case of B6, the “IC50 (read off the curve)” value [2] is reported as roughly 400 nM, the “IC50 (read off the curve)” value [3] is reported as roughly 500 nM and the binding result [4] is reported as “binds”.

B7: CMP-004 (Pembrolizumab) (antibody, human IgG4 S228P, kappa)
heavy: not shown
light: EIVLTQSPATLSLSPGERATLSCRASKGVSTSGYSYLHWYQQKPGQAPRLLIYLASYLESGVPARFSGSGSGTDFTLTISSLEPEDFAVYYCQHSRDLPLTFGGGTKVEIKRTVAAPSVFIFPPSDEQLKSGTASVVCLLNNFYPREAKVQWKVDNALQSGNSQESVTEQDSKDSTYSLSSTLTLSKADYEKHKVYACEVTHQGLSSPVTKSFNRGEC
notes: Unconjugated parent anti-PD-1 antibody (DAR 0); also called Lambrolizumab
For B7, the Kd [5] was 289 nM, the “IC50 (read off the curve)” value [6] was roughly 10 nM and the “IC50 (read off the curve)” value [7] was roughly 0.5 nM. For the same binder, the Kd [8] was 7.31 nM and the Kd [9] was 0.488 nM.
